Bridge positions count the residues as written; N and C are the ends. Square brackets hold non-standard residues; d marks the D form. Primed or numbered codes have the meaning given here. Ends that are not written are not given here. PEG2′ = not defined here

One assay addresses T1, rat EphA5 Fc (rat, UniProt P54757 27-575).
T1 construct: EphA5, rat, Fc fusion; source: bought: R&D Systems
As to the kind of experiment: ELISA; rat EphA5 Fc (1 µg/mL) held on Protein A-coated wells; different concentrations of synthetic WDC with 0.6 nM ephrin-A5 AP for 1 hour; bound AP detected with pNPP; IC50 by non linear regression. The following applies: both partners purified.

The target in assay [1] is human EphA5 ligand-binding domain (LBD), residues 59-235 (human, UniProt P54756 59-235, K232E (from the reverse primer; not stated by the paper) | C233A (from the …, disulfide bridges Cys137-Cys147 and Cys102-Cys220; 15N-labelled for the NMR titration). The assay is described as follows: ITC.
Target sequence in this assay (P54756 59-235 K232E/C233A): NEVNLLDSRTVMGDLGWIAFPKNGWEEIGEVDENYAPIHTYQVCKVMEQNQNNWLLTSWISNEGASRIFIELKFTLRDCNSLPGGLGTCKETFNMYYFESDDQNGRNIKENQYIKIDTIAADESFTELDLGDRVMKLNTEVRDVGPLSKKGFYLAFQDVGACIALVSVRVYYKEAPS
The target in assay [2] is T2, human EphA5 ligand-binding domain (LBD), residues 59-235 (human, UniProt P54756 59-235, K232E (from the reverse primer; not stated by the paper) | C233A (from the …, disulfide bridges Cys137-Cys147 and Cys102-Cys220; 15N-labelled for the NMR titration).
T2 construct: Cloned through BamHI into a modified pET32a and released by thrombin, so extra N-terminal residues (probably GS) may remain; also called EphA5 LBD; source: E. coli Rosetta-gami (DE3), purified (Ni-NTA, thrombin cleavage, gel filtration, Mono Q)
The assay is described as follows: ITC; EphA5 LBD in the cell, bacterially expressed WDC in the syringe; 10 mM phosphate buffer pH 6.3, 25°C; single binding site model. The following applies: both partners purified.
T2 sequence (P54756 59-235 K232E/C233A): as above

T1 sequence (P54757 27-575): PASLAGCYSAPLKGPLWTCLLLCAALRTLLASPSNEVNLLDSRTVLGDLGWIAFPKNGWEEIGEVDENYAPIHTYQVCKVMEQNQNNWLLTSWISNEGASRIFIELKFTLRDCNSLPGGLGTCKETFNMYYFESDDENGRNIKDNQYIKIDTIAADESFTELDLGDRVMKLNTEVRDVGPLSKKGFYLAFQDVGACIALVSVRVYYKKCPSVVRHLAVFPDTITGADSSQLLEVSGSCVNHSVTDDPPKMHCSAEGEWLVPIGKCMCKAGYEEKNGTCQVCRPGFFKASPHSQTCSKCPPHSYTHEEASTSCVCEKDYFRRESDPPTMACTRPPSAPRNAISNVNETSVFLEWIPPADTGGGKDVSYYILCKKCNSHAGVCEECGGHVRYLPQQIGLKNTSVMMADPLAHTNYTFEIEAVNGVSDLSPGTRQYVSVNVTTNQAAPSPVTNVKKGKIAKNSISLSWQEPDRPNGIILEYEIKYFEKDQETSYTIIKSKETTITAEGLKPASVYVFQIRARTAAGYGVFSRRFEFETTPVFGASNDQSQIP

B1: modified WDC peptide (WDCNGPYCHWLG-(PEG)2-KK), synthetic (peptide)
peptide: WDCNGPYCHWLG[PEG2′]KK
modifications: disulfide 3-8
notes: WDC peptide; two lysines joined to the peptide through (PEG)2, which is not an amino acid linker; also called synthetic WDC peptide; source: synthetic peptide (Anaspec, Inc.)
Molecule B1 yielded an IC50 with rat EphA5 Fc of around 50 µM.

B2: WDC antagonistic peptide (WDCNGPYCHWLG), bacterially expressed (peptide)
peptide: WDCNGPYCHWLG
modifications: disulfide 3-8 (inferred)
notes: 12-residue peptide previously identified in a phage-display screen on the extracellular domain of rat EphA5; Cloned through BamHI into a modified pGEX-4T-1; also called WDC peptide; recombinant peptide; source: E. coli Rosetta-gami (DE3), GST fusion, released by in-gel thrombin cleavage, HPLC purified
With B2, in assay [1], the Ka is 161000 M⁻¹. In assay [2], this molecule gave a Kd of 6.2 µM.

Values taken from PMC3782497, “Unique Structure and Dynamics of the EphA5 Ligand Binding Domain Mediate Its Binding Specificity as Revealed by X-ray Crystallography, NMR and MD Simulations” (PLoS ONE, 2013).
